From patent US20040137643A1, “Immunodetection and quantification methods” (priority 2002, published 2004)
Values joined by “and” are separate entries in the source; they are usually repeats but may differ in a detail not shown here. Identical values can stand only once. Like-named read-outs stand apart in the source and are kept apart here.

Assay: C4H enzyme assay: para-hydroxylation of cinnamic acid by yeast microsomes, HPLC quantification of p-coumarate
Assay type: biochemical
Conditions: for Km: Arabidopsis C4H in WAT11 yeast microsomes, substrate cinnamic acid; for Turnover (min^−1 ± SD), CO difference spectrum: P450 concentration from CO difference spectroscopy; for turnover rate, calculated using P450 concentrations from CO difference spectroscopy: spectroscopic P450 quantification
Description: C4H assays were carried out in the presence of various concentrations of cinnamic acid as previously described (Humphreys et al., 1999). Briefly, an NADPH regenerating system consisting of 1 mM NADP^+, 10 mM glucose-6-phosphate, and 1 unit of glucose-6-phosphate dehydrogenase (Sigma, St. Louis, Mo.) was pre-incubated at 30° C. for 5 min to generate NADPH in a final volume of 450 PL of assay buffer. Assays were initiated by the addition of 50 μL of appropriately diluted microsomes and were incubated at 30° C. for 20 min before the reactions were stopped with 100 μL of 3N HCl. Samples were centrifuged for 20 min at 14,000×g and then analyzed by HPLC (Shimadzu Corp., Kyoto, Japan) using a Microsorb-MV C-18 column (Varian Analytical Instruments, Walnut Creek, Calif.) using the following method: solvent A, 1.5% acetic acid in water; solvent B, acetonitrile; flow rate of 1 mL min^−1; 0 to […] in 1.5 min, […], 35 to 100% B in 1 min, 100% B for 5 min. Reaction product was quantified by UV detection at 308 nm. Assays conducted with microsomes isolated from yeast transformed with pYeDP60 served as negative controls.
To evaluate the impact of introducing an amino-terminal FLAG epitotope on C4H enzymatic activity, kinetic parameters of both native and FLAG-C4H were determined using the same microsomal fractions used for protein quantification. It is important to note that the WAT11 yeast strain was chosen because this strain is engineered to express the Arabidopsis P450 reductase gene ATR1 under the control of the same galactose promoter used to drive P450 expression, eliminating the need to reconstitute the P450/P450 reductase system. Consistent with subcellular targeting of wild-type C4H expressed in yeast, both the native and FLAG-C4H activity was found in the microsomal fraction. […] Turnover rates of native and FLAG-C4H were also evaluated, using both spectroscopic and immunological P450 quantitation. When calculated using P450 concentrations obtained from CO difference spectroscopy, native C4H and FLAG-C4H turnover rates were determined to be 28±0.1 and 83±2.0 min^1, respectively. This difference, although significant, may be associated with variability in reductase activity in this heterologous expression system (data not shown). In comparison to CO difference spectroscopy, the lower concentration of FLAG-C4H obtained by Midwestern blot gives a correspondingly higher turnover rate of 380±7 min^−1.

[1] = P450 concentration from Midwestern blot

Row | Molecule | Km (n=3, read-out: Km app. (±SD)) [µM] | Km (read-out: Km^aPP) [µM] | Turnover (min^−1 ± SD), CO difference spectrum [min⁻¹] | turnover rate, calculated using P450 concentrations from CO difference spectroscopy [min^1] | Turnover (min^−1 ± SD), Midwestern blot [1] [min⁻¹] | turnover rate, calculated using immunological quantification [1] [min^1] | Turnover (min^−1 ± SD), Midwestern blot (P450 concentration from Midwestern blot, listed as FLAG-C4H) [min⁻¹] | turnover rate, calculated using P450 concentrations from CO difference spectroscopy (listed as FLAG-C4H)
1 | Wild type C4H: Arabidopsis P450 cinnamate 4-hydroxylase (C4H) expressed in yeast from pYeDP60-C4H (protein, UniProt P92994 1-505, looked up) Trans-cinnamate …: MDLLLLEKSLIAVFVAVILATVISKLRGKKLKLPPGPIPIPIFGNWLQVGDDLNHRNLVDYAKKFGDLFLLRMGQRNLVVVSSPDLTKEVLLTQGVEFGSRTRNVVFDIFTGKGQDMVFTVYGEHWRKMRRIMTVPFFTNKVVQQNREGWEFEAASVVEDVKKNPDSATKGIVLRKRLQLMMYNNMFRIMFDRRFESEDDPLFLRLKALNGERSRLAQSFEYNYGDFIPILRPFLRGYLKICQDVKDRRIALFKKYFVDERKQIASSKPTGSEGLKCAIDHILEAEQKGEINEDNVLYIVENINVAAIETTLWSIEWGIAELVNHPEIQSKLRNELDTVLGPGVQVTEPDLHKLPYLQAVVKETLRLRMAIPLLVPHMNLHDAKLAGYDIPAESKILVNAWWLANNPNSWKKPEEFRPERFFEEESHVEANGNDFRYVPFGVGRRSCPGIILALPILGITIGRMVQNFELLPPPGQSKVDTSEKGGQFSLHILNHSIIVMKPRNC | 0.7 ± 0.01 | 0.7 ± 0.01 | 28 ± 0.1 | 28±0.1 | – | – | – | –
2 | FLAG-tagged C4H: amino-terminal FLAG-epitope tagged C4H expressed in yeast from pYeDP60-FC4H (protein, UniProt P92994 1-505, looked up, N-terminal FLAG tag) Trans-cinnamate …: MDLLLLEKSLIAVFVAVILATVISKLRGKKLKLPPGPIPIPIFGNWLQVGDDLNHRNLVDYAKKFGDLFLLRMGQRNLVVVSSPDLTKEVLLTQGVEFGSRTRNVVFDIFTGKGQDMVFTVYGEHWRKMRRIMTVPFFTNKVVQQNREGWEFEAASVVEDVKKNPDSATKGIVLRKRLQLMMYNNMFRIMFDRRFESEDDPLFLRLKALNGERSRLAQSFEYNYGDFIPILRPFLRGYLKICQDVKDRRIALFKKYFVDERKQIASSKPTGSEGLKCAIDHILEAEQKGEINEDNVLYIVENINVAAIETTLWSIEWGIAELVNHPEIQSKLRNELDTVLGPGVQVTEPDLHKLPYLQAVVKETLRLRMAIPLLVPHMNLHDAKLAGYDIPAESKILVNAWWLANNPNSWKKPEEFRPERFFEEESHVEANGNDFRYVPFGVGRRSCPGIILALPILGITIGRMVQNFELLPPPGQSKVDTSEKGGQFSLHILNHSIIVMKPRNC | 1.1 ± 0.09 | 1.1 ± 0.09 | 83 ± 2 | – | 380 ± 7 | 380±7 | 380 ± 7 | 83±2.0 min^1 and 83±2 min^1
